Reference: IntAct's records for PubMed 26167883

Biological target: mcm2_human MCM2 (UniProt P49736)

effect of a mutation on the interaction: decreasing interaction strength
Substance: Histone H3.1 (Homo sapiens) (from UniProt P68431) R64A;K65A
